Results from publication PMC7939394, “A highly potent CD73 biparatopic antibody blocks organization of the enzyme active site through dual mechanisms” (The Journal of Biological Chemistry, 2020).

Assays:
TB38/AS30 = assay: SPR; Biacore T200, 25°C, HBS-EP+ pH 7.4; antibody captured at low density (5-30 RU) on Protein A chips, CD73 at 3, 12 or 32 nM in the flow (5 min association, 30 min dissociation); 1:1 Langmuir binding model
TB19/TB38 = assay: as above
TB19/AS30 = assay: as above
[1] = target: T1, extracellular domain of human CD73 (residues 27-549) deglycosylated with PNGase F (human, UniProt P21589, deglycosylated with PNGase F; a glycan left at Asn-311); assay: crystal structure; TB19 Fab::CD73 complex; crystals in 0.1 M sodium potassium phosphate pH 6.2, 35% 5-methyl-2,4-pentanediol, 2.5% pentaerythritol ethoxylate, 4°C; details: both partners purified
T1 construct: CD73 (ecto-5'-nucleotidase, NT5E), human, extracellular domain, residues 27-549; Construct used for SEC-MALS and for the two crystal structures; also called ecto-5'-nucleotidase; NT5E; source: ExpiHEK293, purified (nickel column, PNGase F, size-exclusion chromatography)

soluble CD73 dimer = target: T2, soluble CD73 dimer (human, UniProt P21589); assay: BLI; pre-mix epitope binning: monovalent antibodies on protein A biosensors, 100 nM CD73 alone or with a 4-fold molar excess of Fab; PBS pH 7.4, 0.1% BSA, 0.01% Tween 20, 30°C; details: both partners purified
T2 construct: CD73 (ecto-5'-nucleotidase, NT5E), human, soluble form; Also used here as the target of the functional rows, where CD73 stood whole on COR-L23 cells; also called soluble human CD73

[2] = target: T1, extracellular domain of human CD73 …; assay: crystal structure; TB38 Fab::CD73 complex; crystals in 1.6 M sodium phosphate monobasic, 0.4 M potassium phosphate dibasic, 0.1 M sodium phosphate citrate pH 5.3, 4°C; details: both partners purified
[3] = target: the molecule itself; assay: crystal structure; TB19 Fab::CD73 complex; crystals in 0.1 M sodium potassium phosphate pH 6.2, 35% 5-methyl-2,4-pentanediol, 2.5% pentaerythritol ethoxylate, 4°C

B1: soluble CD73 dimer (enzyme)
chain: WELTILHTNDVHSRLEQTSEDSSKCVNASRCMGGVARLFTKVQQIRRAEPNVLLLDAGDQYQGTIWFTVYKGAEVAHFMNALRYDAMALGNHEFDNGVEGLIEPLLKEAKFPILSANIKAKGPLASQISGLYLPYKVLPVGDEVVGIVGYTSKETPFLSNPGTNLVFEDEITALQPEVDKLKTLNVNKIIALGHSGFEMDKLIAQKVRGVDVVVGGHSNTFLYTGNPPSKEVPAGKYPFIVTSDDGRKVPVVQAYAFGKYLGYLKIEFDERGNVISSHGNPILLNSSIPEDPSIKADINKWRIKLDNYSTQELGKTIVYLDGSSQSCRFRECNMGNLICDAMINNNLRHTDEMFWNHVSMCILNGGGIRSPIDERNNGTITWENLAAVLPFGGTFDLVQLKGSTLKKAFEHSVHRYGQSTGEFLQVGGIHVVYDLSRKPGDRVVKLDVLCTKCRVPSYDPLKMDEVYKVILPNFLANGGDGFQMIKDELLRHDSGDQDINVVSTYISKMKVIYPAVEGRIKFS
How did the Kd (TB38/AS30) turn out when B1 was run?
The Kd was 0.814 nM.

And the koff (TB38/AS30)?
Its koff is 0.000187 s⁻¹.

And the kon (TB38/AS30)?
The kon was 237000 M⁻¹ s⁻¹.

And the Kd (TB19/TB38)?
Its Kd is 0.555 nM.

And the koff (TB19/TB38)?
Its koff is 0.000102 s⁻¹.

And the kon (TB19/TB38)?
Its kon is 184000 M⁻¹ s⁻¹.

And the Kd (TB19/AS30)?
Its Kd is 4.18 nM.

What about the koff (TB19/AS30) of the same binder?
The koff was 0.00069 s⁻¹.

And the kon (TB19/AS30)?
Its kon is 165000 M⁻¹ s⁻¹.

B2: TB19 Fab (Fab, V domains shown)
VH: QEQLQESGPGLVKPSETLSLTCTVSGGSIRNNYYNWIRQPAGKGLEWIGRIYISGTTNSNPSLKSRVTMSIDTSKNQFSLKLSSVTAADTAIYYCAREHYVSGTSLDNWGQGTLVTVSS
VL: EIVMTQSPTTLSLSPGERATLSCRASQSVNTNYFSWYQQKPGLTPRLLIYGTSTRATGIPARFSGSGSGTDFTLTISSLQPEDFGIYYCQQDYNLPYTFGQGTYLEIK
notes: deposited with the structure TB19::CD73, PDB 6VC9 (only the Fv could be built); The methods speak of a 'TB19.3 Fv model' as search model; also called TB19 Fv
What does the source list for B2?
binding result [1]: binds; binding result (soluble CD73 dimer): binds

B3: TB38 Fab (Fab, V domains shown)
VH: QVQLVESGGGVVQPGRSLRLSCAASGFTFSSYGMHWVRQAPGKGLEWVAVFWYDGSNKYYADSVKGRFTISRDNSKNTLYLQMNSLSAEDTAVYYCARAPNWDDAFDIWGQGTMVTVSS
VL: QTVVTQEPSFSVSPGGTVTLTCGLSSGSVSTSYYPNWYQQTPGQAPRTLIYSTNTRSSGVPDRFSGSILGNKAALTITGAQADDESDYYCVLFMGSGIWVFGGGTKLTVL
notes: deposited with the structure TB38::CD73, PDB 6VCA (full Fab built on the open CD73 dimer); also called TB38 Fv
Does B3 bind [2]?
Result: binds

B4: extracellular domain of human CD73 (residues 27-549) deglycosylated with PNGase F (enzyme, UniProt P21589 27-549, looked up)
chain: WELTILHTNDVHSRLEQTSEDSSKCVNASRCMGGVARLFTKVQQIRRAEPNVLLLDAGDQYQGTIWFTVYKGAEVAHFMNALRYDAMALGNHEFDNGVEGLIEPLLKEAKFPILSANIKAKGPLASQISGLYLPYKVLPVGDEVVGIVGYTSKETPFLSNPGTNLVFEDEITALQPEVDKLKTLNVNKIIALGHSGFEMDKLIAQKVRGVDVVVGGHSNTFLYTGNPPSKEVPAGKYPFIVTSDDGRKVPVVQAYAFGKYLGYLKIEFDERGNVISSHGNPILLNSSIPEDPSIKADINKWRIKLDNYSTQELGKTIVYLDGSSQSCRFRECNMGNLICDAMINNNLRHTDEMFWNHVSMCILNGGGIRSPIDERNNGTITWENLAAVLPFGGTFDLVQLKGSTLKKAFEHSVHRYGQSTGEFLQVGGIHVVYDLSRKPGDRVVKLDVLCTKCRVPSYDPLKMDEVYKVILPNFLANGGDGFQMIKDELLRHDSGDQDINVVSTYISKMKVIYPAVEGRIKFS
modifications: deglycosylated with PNGase F; a glycan left at Asn-311
notes: CD73 (ecto-5'-nucleotidase, NT5E), human, extracellular domain, residues 27-549; Construct used for SEC-MALS and for the two crystal structures; also called ecto-5'-nucleotidase; NT5E; source: ExpiHEK293, purified (nickel column, PNGase F, size-exclusion chromatography)
How did the “stoichiometry N” value [3] turn out when B4 was run?
Its value is 2.
